The values below come from paper doi:10.1101/2022.01.06.475303 (bioRxiv, 2022).

For the experiment, the target named is SARS-CoV-2 receptor binding domain (RBD), Wuhan-1 (SARS-CoV-2 Wuhan-Hu-1, UniProt P0DTC2). Kind of experiment: SPR. Background: In SPR one partner is held on a chip, and binding of the other changes the refractive index at the surface.

B1: eCC12.1.7 IgG (antibody, V domains shown)
VH: EVQLVESGGGLIQPGGSLRLSCAASGLTVSSNYMTWVRQAPGKGLEWVSVIYAGGSTFYADSVKGRFTISRDNSKNTLYLQMNSLRAEDTAVYYCARDLDVYGVDVWGQGTTVTVSS
VL: DIQLTQSPSFLSASVGDRVTITCRASQGISRYLAWYQQKPGKAPKLLIYAASTLQYGVPSRFSGSGSGTEFTLTISSLQPEDFATYYCQQLNSYPPKYTFGPGTKVEIK
Regarding B1, the binding result is “binds”.
